Measurements: patent US20080119640A1
“And” between values parts separate entries of the source, which are not always exact repeats. Equal entries are not always repeated.

What follows are substances tested against T1, IFNα receptor 2 (IFNAR2) on THP-1 cells (human) (UniProt P48551) (assay: cell-based or functional assay).
T1 sequence (looked up): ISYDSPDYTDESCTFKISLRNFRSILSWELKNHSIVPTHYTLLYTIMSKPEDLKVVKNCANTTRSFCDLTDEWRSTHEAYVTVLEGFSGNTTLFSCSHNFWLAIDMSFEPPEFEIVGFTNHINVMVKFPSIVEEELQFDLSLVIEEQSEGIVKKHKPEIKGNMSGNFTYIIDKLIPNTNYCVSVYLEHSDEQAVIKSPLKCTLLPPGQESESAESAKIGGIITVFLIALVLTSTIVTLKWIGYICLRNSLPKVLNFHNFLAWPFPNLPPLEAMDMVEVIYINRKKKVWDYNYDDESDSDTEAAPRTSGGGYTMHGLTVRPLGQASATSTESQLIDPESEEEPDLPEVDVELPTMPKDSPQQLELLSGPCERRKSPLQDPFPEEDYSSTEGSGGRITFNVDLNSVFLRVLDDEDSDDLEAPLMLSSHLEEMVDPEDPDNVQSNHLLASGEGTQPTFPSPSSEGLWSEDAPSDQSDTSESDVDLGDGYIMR

Substance	pSTAT1 % (PEGASYS fixed as 100%)	pSTAT1 EC50 (pM)
6His N45pAF-30K PEG (from UniProt P01563 24-188) (ligand)	18.2%	
6His P39pAF-30K PEG (from UniProt P01563 24-188) (ligand)	52.9%	253 pM
6His L110pAF-30K PEG (from UniProt P01563 24-188) (ligand)	27.8%	133 pM
6His N65pAF-30K PEG (from UniProt P01563 24-188) (ligand)	> 532%	> 2860 pM
6His G37pAF-30K PEG (from UniProt P01563 24-188) (ligand)	40.3%	193 pM
6His E41pAF (from UniProt P01563 24-188) (ligand)	3.97%	19 pM
6His R12pAF-30K PEG (from UniProt P01563 24-188) (ligand)	138%	660 pM
6His F27pAF-30K PEG (from UniProt P01563 24-188) (ligand)	66%	316 pM
6His K31pAF-30K PEG (from UniProt P01563 24-188) (ligand)	62.5%	
6His F38S (from UniProt P01563 24-188) (ligand)	3.76%	
6His T106pAF-30K PEG (from UniProt P01563 24-188) (ligand)	28.4%	
6His E107pAF (from UniProt P01563 24-188) (ligand)	6.43%	30.8 pM
6His R125pAF-30K PEG (from UniProt P01563 24-188) (ligand)	47%	225 pM
6His K31pAF (from UniProt P01563 24-188) (ligand)	10.2%	
6His E113pAF-30K PEG (from UniProt P01563 24-188) (ligand)	54.7%	262 pM
6HisC1G/C98 IFNα-2a + limitin loop (from UniProt P01563 25-188) (ligand)	6.27% and 7.27%	30 pM and 34.8 pM
6His L117pAF-30K PEG (from UniProt P01563 24-188) (ligand)	50.6%	242 pM

Further lines, results first:

pSTAT1 % (PEGASYS fixed as 100%)	pSTAT1 EC50 (pM)	Substance
25.2%	120 pM	6His E41pAF-30K PEG (from UniProt P01563 24-188) (ligand)
22.5%		6His K134pAF-30K PEG (from UniProt P01563 24-188) (ligand)
4.55%	21.8 pM	6His G37pAF (from UniProt P01563 24-188) (ligand)
2.72%	13 pM	6His F38L (from UniProt P01563 24-188) (ligand)
22.3% and 7.27%		6His E107pAF-30K PEG (from UniProt P01563 24-188) (ligand)
25%		6His H34pAF (from UniProt P01563 24-188) (ligand)
100%	479 pM	PEGASYS® (Peginterferon alfa-2a) (from UniProt P01563 24-188) (ligand)
33.6%	161 pM	6His H34pAF-30K PEG (from UniProt P01563 24-188) (ligand)
